This is an account of results in patent publication US20040058457 (published 2004).

Data set [1] addresses T1, GST-Zif268 (PED107) (mouse, UniProt P08046 SEQ:1-90). As to the kind of experiment: EMSA; 1% agarose gel, RT 10 min, 0-4 uL of 1 mg/mL protein; shorter DNA trapped in well with increasing protein.
Data set [2] has as its target T1, GST-Zif268 (PED107). As to the kind of experiment: EMSA; protein bound to Au-GSH nanoparticles; DNA co-migrated with Au particles; 1% agarose, 1xTAE, RT 10 min.

B1: NZ-23 420 bp fragment with 23 tandem Zif268 sites separated by NRE sites (dsDNA)
DNA 1: AAGGGTTCAGCGTGGGCG
DNA 2: CGCCCACGCTGAACCCTT
For the molecule B1, in the data set with GST-Zif268 (PED107) [1], the binding result is on record as “binds”.

B2: NZ-23 (as added to Au-GSH/GST-Zif268 assay) (dsDNA)
DNA 1: AAGGGTTCAGCGTGGGCG
DNA 2: CGCCCACGCTGAACCCTT
As for B2, the binding result in the data set with GST-Zif268 (PED107) [2] was “binds”.
